Test results taken from patent CN116284393A (BEIJING DONGFANG BIOTECH CO LTD, dated 2023).

Assays:
[1] = target: T1, 人单核细胞白血病细胞(THP-1)表面LILRB4 (human, UniProt Q8NHJ6 22-448); assay: cell-based or functional assay
[2] = target: T2, LILRA5 (UniProt A6NI73 42-268, limits assumed); assay: ELISA, coated protein 100ng/well
[3] = target: T3, LILRA6 (UniProt Q6PI73 24-447, limits assumed); assay: ELISA, coated protein 100ng/well
[4] = target: T4, LILRB1 (UniProt Q8NHL6 24-461, limits assumed); assay: ELISA, coated protein 100ng/well
[5] = target: T5, LILRB2 (UniProt Q8N423 22-460, limits assumed); assay: ELISA, coated protein 100ng/well
[6] = target: T6, LILRB3 (UniProt O75022 24-443, limits assumed); assay: ELISA, coated protein 100ng/well
[7] = target: T7, LILRB5 (UniProt O75023 24-458, limits assumed); assay: ELISA, coated protein 100ng/well
[8] = target: T8, LILRA1 (UniProt O75019 17-461, limits assumed); assay: ELISA, coated protein 100ng/well
[9] = target: T9, LILRA2 (UniProt Q8N149 24-449, limits assumed); assay: ELISA, coated protein 100ng/well
[10] = target: T10, LILRA3 (UniProt Q8N6C8 24-439); assay: ELISA, coated protein 100ng/well
[11] = target: T11, LILRA4 (UniProt P59901 24-446, limits assumed); assay: ELISA, coated protein 100ng/well
[12] = target: T2, LILRA5; assay: ELISA, coated protein, antibody at 50μg/mL
[13] = target: T3, LILRA6; assay: ELISA, coated protein, antibody at 50μg/mL
[14] = target: T4, LILRB1; assay: ELISA, coated protein, antibody at 50μg/mL
[15] = target: T5, LILRB2; assay: ELISA, coated protein, antibody at 50μg/mL
[16] = target: T6, LILRB3; assay: ELISA, coated protein, antibody at 50μg/mL
[17] = target: T7, LILRB5; assay: ELISA, coated protein, antibody at 50μg/mL
[18] = target: T12, LILRB4抗原 (人LILRB4蛋白胞外段) (human, UniProt Q8NHJ6 22-259); assay: ELISA, coated protein, antibody at 50μg/mL
T12 construct: extracellular domain; Made in house from a synthesised gene

[19] = target: T8, LILRA1; assay: ELISA, coated protein, antibody at 50μg/mL
[20] = target: T9, LILRA2; assay: ELISA, coated protein, antibody at 50μg/mL
[21] = target: T10, LILRA3; assay: ELISA, coated protein, antibody at 50μg/mL
[22] = target: T11, LILRA4; assay: ELISA, coated protein, antibody at 50μg/mL
[23] = target: T12, LILRB4抗原 (人LILRB4蛋白胞外段); assay: ELISA, coated LILRB4, Goat Anti-Mouse IgG-HRP
[24] = target: T1, 人单核细胞白血病细胞(THP-1)表面LILRB4; assay: flow cytometry on THP-1 cells, FITC goat anti-mouse IgG
[25] = target: T1, 人单核细胞白血病细胞(THP-1)表面LILRB4; assay: flow cytometry competition on THP-1 cells, competitor FITC-labelled ApoE 0.4μg/mL

T6 sequence (O75022 24-443 limits assumed): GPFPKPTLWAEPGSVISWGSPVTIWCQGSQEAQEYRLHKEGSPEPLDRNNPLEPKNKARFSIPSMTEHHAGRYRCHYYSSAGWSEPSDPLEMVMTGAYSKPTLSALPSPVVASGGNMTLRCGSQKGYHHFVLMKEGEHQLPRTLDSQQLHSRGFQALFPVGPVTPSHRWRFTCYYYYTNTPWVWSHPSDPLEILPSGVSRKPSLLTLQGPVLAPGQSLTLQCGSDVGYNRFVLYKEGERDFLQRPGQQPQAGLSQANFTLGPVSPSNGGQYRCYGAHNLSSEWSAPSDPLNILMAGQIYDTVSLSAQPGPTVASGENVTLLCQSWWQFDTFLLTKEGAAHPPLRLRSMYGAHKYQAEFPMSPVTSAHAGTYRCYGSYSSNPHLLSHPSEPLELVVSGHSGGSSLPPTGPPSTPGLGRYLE
T9 sequence (Q8N149 24-449 limits assumed): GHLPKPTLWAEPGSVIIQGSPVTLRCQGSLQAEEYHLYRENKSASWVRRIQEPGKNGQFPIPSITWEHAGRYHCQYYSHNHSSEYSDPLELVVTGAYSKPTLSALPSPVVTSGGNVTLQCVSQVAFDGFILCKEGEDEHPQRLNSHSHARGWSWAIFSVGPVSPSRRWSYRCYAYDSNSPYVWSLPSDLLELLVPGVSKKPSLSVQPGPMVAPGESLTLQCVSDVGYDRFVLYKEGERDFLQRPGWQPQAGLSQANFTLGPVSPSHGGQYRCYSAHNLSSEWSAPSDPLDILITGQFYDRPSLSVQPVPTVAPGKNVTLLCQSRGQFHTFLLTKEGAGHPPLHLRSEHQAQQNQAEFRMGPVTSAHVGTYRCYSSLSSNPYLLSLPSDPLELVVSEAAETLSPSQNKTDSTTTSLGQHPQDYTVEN
T5 sequence (Q8N423 22-460 limits assumed): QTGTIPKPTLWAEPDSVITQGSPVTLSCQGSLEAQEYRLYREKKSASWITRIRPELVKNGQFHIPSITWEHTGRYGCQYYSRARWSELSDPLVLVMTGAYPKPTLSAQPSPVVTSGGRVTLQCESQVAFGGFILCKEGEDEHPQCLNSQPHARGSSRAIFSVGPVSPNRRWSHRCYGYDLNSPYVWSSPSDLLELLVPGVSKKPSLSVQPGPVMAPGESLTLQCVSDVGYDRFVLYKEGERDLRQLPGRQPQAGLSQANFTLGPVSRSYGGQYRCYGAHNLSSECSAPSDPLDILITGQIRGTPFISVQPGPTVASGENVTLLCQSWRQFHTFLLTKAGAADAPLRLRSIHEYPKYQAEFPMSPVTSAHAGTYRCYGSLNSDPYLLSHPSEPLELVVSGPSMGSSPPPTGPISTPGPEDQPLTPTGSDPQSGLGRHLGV
T7 sequence (O75023 24-458 limits assumed): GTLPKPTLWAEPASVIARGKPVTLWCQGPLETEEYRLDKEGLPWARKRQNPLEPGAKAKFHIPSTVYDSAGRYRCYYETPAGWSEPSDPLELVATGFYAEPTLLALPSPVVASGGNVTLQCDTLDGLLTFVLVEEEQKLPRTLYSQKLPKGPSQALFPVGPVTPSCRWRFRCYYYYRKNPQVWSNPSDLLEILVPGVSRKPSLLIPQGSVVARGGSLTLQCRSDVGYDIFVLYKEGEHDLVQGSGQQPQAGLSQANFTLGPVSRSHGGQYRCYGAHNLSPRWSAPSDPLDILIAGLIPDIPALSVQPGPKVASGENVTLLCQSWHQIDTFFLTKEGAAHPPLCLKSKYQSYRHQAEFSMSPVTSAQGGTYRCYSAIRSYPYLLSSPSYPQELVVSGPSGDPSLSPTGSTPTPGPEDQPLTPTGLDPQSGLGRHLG
T3 sequence (Q6PI73 24-447 limits assumed): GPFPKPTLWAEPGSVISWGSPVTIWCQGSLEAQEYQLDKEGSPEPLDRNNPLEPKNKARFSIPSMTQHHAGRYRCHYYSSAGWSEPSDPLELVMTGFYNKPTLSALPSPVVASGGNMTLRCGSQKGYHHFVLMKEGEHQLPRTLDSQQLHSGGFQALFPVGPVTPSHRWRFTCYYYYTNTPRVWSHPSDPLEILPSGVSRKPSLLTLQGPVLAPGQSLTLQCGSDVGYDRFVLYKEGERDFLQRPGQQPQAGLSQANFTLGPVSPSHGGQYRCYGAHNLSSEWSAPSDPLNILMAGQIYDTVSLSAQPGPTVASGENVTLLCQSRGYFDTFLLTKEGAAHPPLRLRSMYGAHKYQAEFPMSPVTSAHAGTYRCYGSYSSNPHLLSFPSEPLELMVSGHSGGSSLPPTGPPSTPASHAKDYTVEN
T10 sequence (Q8N6C8 24-439 limits assumed): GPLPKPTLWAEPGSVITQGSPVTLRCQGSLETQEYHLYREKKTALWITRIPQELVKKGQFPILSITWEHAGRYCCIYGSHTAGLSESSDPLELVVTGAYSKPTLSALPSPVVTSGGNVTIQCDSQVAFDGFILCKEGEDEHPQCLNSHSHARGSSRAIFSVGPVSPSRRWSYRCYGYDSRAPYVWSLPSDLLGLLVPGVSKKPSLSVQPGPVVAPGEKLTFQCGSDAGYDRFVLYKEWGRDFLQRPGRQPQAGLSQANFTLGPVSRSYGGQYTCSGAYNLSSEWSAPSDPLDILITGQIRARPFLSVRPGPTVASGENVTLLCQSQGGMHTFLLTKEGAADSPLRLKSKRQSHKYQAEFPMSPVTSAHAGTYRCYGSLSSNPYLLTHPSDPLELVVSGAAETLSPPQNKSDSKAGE
T8 sequence (O75019 17-461 limits assumed): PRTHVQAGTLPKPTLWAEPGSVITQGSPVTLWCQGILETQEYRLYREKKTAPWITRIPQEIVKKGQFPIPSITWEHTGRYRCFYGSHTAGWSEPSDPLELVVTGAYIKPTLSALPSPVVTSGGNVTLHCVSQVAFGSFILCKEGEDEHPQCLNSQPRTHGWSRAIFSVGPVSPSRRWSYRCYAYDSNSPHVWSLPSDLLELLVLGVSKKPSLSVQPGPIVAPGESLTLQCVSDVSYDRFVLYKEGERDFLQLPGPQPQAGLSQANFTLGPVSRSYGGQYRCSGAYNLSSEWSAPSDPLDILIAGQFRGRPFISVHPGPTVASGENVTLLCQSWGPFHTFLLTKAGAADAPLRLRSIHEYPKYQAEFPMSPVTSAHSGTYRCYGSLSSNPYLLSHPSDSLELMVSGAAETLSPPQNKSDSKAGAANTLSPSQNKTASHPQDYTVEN
T2 sequence (A6NI73 42-268 limits assumed): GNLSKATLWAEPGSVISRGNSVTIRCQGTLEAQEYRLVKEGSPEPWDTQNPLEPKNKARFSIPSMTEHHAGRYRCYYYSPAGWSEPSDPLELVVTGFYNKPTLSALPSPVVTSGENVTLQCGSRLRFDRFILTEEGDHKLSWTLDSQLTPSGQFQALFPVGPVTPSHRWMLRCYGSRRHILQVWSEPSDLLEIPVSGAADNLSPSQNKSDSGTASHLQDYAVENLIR
T4 sequence (Q8NHL6 24-461 limits assumed): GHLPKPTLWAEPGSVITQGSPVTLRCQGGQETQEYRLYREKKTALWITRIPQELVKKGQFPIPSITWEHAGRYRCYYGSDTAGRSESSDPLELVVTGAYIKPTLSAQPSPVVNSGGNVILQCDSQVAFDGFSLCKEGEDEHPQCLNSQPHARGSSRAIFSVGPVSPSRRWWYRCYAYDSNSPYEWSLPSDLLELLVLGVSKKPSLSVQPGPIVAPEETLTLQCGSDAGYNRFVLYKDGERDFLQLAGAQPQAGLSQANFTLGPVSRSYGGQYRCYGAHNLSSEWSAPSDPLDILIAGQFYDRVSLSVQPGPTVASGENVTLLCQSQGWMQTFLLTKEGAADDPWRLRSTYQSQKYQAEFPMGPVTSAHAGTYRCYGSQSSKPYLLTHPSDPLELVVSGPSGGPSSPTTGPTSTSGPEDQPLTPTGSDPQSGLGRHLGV
T11 sequence (P59901 24-446 limits assumed): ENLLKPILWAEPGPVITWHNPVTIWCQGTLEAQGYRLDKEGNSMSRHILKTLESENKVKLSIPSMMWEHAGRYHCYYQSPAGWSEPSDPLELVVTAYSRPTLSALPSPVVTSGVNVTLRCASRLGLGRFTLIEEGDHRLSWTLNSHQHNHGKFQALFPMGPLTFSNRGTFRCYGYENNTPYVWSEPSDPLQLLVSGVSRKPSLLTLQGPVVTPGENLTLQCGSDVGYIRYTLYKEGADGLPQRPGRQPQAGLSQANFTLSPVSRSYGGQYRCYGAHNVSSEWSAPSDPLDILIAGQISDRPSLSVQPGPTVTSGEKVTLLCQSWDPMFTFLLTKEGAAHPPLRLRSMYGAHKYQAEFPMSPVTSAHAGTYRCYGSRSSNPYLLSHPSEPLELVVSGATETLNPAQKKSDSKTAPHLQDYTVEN

IC50(μg/mL), 抑制THP-1分泌ARG1 (arginase activity in supernatant, with 0.5μg/mL ApoE) [1]: 257 µg/mL
binding result [2]: no binding (tested: 50μg/mL)
binding result [3]: no binding (tested: 50μg/mL)
binding result [4]: no binding (tested: 50μg/mL)
binding result [5]: no binding (tested: 50μg/mL)
binding result [6]: no binding (tested: 50μg/mL)
binding result [7]: no binding (tested: 50μg/mL)
binding result [8]: no binding (tested: 50μg/mL)
binding result [9]: no binding (tested: 50μg/mL)
binding result [10]: no binding (tested: 50μg/mL)
binding result [11]: no binding (tested: 50μg/mL)
OD 450nm/630nm [12]: 0.066
OD 450nm/630nm [13]: 0.053
OD 450nm/630nm [14]: 0.045
OD 450nm/630nm [15]: 0.04
OD 450nm/630nm [16]: 0.05
OD 450nm/630nm [17]: 0.176
OD 450nm/630nm [18]: 2.72
OD 450nm/630nm [19]: 0.103
OD 450nm/630nm [20]: 0.046
OD 450nm/630nm [21]: 0.057
OD 450nm/630nm [22]: 0.077
EC50 [23]: 0.188 µg/mL
EC50 [24]: 4.31 µg/mL
IC50 [25]: 7.18 µg/mL
B1: MG-Ⅰ 单克隆抗体 (mouse IgG1 / Ck full antibody) (antibody, V domains shown)
VH: EVKLEESGGGLVKPGGSLKLSCAASGFTFSSNTMSWVRQTPEKRLEWVATISSGGSYIYYRDSVKGRFTISRDNAKNTLYLQMSSLKSEDTAMYYCTSEGRSRDPYYYSMDYWGQGTSVTVSS
VL: DIVLTQTPLSLPVSLGDQASISCRSSQSLVHSNGNTYLHWYLQKPGQSPKLLIYKVSNRFSGVPDRFSGSGSGTDFTLKISRVEAEDLGVYFCSQSTHVPTFGAGTKLELKA
notes: also called 单克隆抗体MG-Ⅰ
